Results on 1 substance are retold here after patent US20250320294A1.

Read-outs that look alike come from different tables or passages of the source.

Assay [1] concerns the target human-CD45RO-ECD-His (human) (UniProt P08575). The assay can be described thus: SPR, captured human-CD45RO-ECD-His, 1:1 binding. (In general: SPR reads the build-up and loss of mass on a sensor chip optically.)
Assay [2] has the same target. The experiment in a line: ELISA, human-CD45RO-ECD-His-coated plates. For orientation: In an ELISA, binding on a coated surface is turned into a signal by an enzyme label.
The target is the same in assay [3]. The experiment in a line: ELISA, human-CD45RO-ECD-His-coated plates. The source holds these as a separate data set.

In the case of “CD45RO Monoclonal Antibody (UCHL1) (eBioscience™)”, in assay [1], the Kd is 433000 pM, the koff turned out to be 0.00373 s⁻¹ and the kon stood at 8610 M⁻¹ s⁻¹. In assay [2], this substance yielded a concentration for a half-maximal effect (EC50) of 544 pM. The concentration giving a half-maximal response (EC50) in assay [3] worked out at 328 pM.

A word on the Kd: it is the constant that tells how readily two partners part at equilibrium. A low value points to higher affinity. The term koff denotes the first-order rate constant of dissociation. What is called kon is the rate constant with which the complex forms. One may read the EC50 as the concentration giving half of the maximal effect. Lower therefore signals a more potent agent.
